Data from patent US20230074657A1.

Biological target: Tag1-LAG3 protein (UniProt P18627)
Assay: HTRF blocking assay (Cisbio kit): Tag1-LAG3 with Tag2-FGL1 and antibody

Sequence of Tag1-LAG3 protein (P18627 23-450): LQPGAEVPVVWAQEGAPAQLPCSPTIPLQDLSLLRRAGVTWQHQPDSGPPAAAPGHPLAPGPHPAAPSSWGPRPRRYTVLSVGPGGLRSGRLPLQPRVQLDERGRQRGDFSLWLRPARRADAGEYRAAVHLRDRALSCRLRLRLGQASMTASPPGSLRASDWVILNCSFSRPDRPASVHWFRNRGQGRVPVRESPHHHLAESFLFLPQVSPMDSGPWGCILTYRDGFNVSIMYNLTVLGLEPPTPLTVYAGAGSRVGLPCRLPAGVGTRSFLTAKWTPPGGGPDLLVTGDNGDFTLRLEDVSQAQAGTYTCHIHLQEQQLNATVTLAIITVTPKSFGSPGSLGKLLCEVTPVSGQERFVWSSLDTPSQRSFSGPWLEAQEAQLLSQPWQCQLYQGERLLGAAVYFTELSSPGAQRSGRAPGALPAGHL

An IC50 (read off the curve) of 2 µg/mL was found for Positive control (ab40465) (antibody) in this work.
